B1: third intracellular loop (TIL) of the β1-adrenergic receptor (amino acids 246–325), labeled with Alexa 488 (domain or fragment, UniProt P08588 246-325, looked up)
chain: RVFREAQKQVKKIDSCERRFLGGPARPPSPSPSPVPAPAPPPGPPRPAAAAATAPLANGRAGKRRPSRLVALREQKALKT
modifications: Alexa 488 on the N-terminal amine (30 to 50% labeling); Cys261 coupled to the maleimide lipid MCC-PE in the experiments with TIL-conjugated vesicles
notes: β1-adrenergic receptor, third intracellular loop, amino acids 246–325, cloned from the pcDNA3-Flag beta-1-adrenergic-receptor vector; 80 residues, 8861 Da; Cloned into BamHI/EcoRI of pGEX6p1 and cut with PreScission protease, so a few vector residues may remain at the N-terminus (surmise); also called TIL peptide; TIL-Alexa 488; source: E. coli BL21-CodonPlus (DE3)-RIL, purified (GST trap, …)

Key:
[1] = target: beta1-adrenergic receptor TIL (UniProt P08588); settings: cited from earlier work
[2] = target: T1, full-length rat endophilin A1 (C108S, E241C, C294S, C295S), labeled with Alexa 594-maleimide (rat, UniProt O35179 1-352, C108S | E241C | C294S | C295S, Alexa 594-maleimide on the cysteine (E241C)); assay: confocal fluorescence imaging of recruitment to peptide-conjugated GUVs; TIL-Alexa 488 covalently conjugated (cysteine-maleimide) to GUVs of MCC-PE/DOPC/DiD 5:94.5:0.5; Alexa 594-labeled protein added in solution; HEPES buffer (20 mM HEPES, 150 mM NaCl, 1 mM TCEP, pH 7.4); room temperature; settings: both partners purified
T1 construct: endophilin A1, rat, full length; The introduction calls endophilin a dimeric protein; also called endophilin-Alexa 594; single cysteine mutant of rat endophilin A1
T1 sequence (O35179 whole entry C108S/E241C/C294S/C295S): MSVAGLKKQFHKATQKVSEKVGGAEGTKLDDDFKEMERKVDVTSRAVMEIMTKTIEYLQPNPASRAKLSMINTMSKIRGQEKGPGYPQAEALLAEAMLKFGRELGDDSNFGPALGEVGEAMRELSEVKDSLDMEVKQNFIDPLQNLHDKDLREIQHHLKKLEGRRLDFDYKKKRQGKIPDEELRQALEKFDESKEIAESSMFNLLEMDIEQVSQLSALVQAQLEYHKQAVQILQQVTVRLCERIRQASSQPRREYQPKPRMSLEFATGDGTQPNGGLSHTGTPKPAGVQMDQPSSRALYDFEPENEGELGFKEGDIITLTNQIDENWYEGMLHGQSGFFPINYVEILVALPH

| Molecule | Kd [1] [nM] | binding result [2] |
| --- | --- | --- |
| endophilin A1 (from UniProt Q99962) | 47 | – |
| B1 | – | binds |

Source: article PMC7948419, “Endophilin recruitment drives membrane curvature generation through coincidence detection of GPCR loop interactions and negative lipid charge” (The Journal of Biological Chemistry, 2020)
